Legend:
[1] = target: T1, Cyno Cadherin-19 (cynomolgus monkey (Macaca fascicularis), UniProt Q9H159 44-772 (human entry)); assay: FACS, recombinant cyno CDH19
T1 construct: also called cyno CDH19; cynomologous CDH-19
T1 chain: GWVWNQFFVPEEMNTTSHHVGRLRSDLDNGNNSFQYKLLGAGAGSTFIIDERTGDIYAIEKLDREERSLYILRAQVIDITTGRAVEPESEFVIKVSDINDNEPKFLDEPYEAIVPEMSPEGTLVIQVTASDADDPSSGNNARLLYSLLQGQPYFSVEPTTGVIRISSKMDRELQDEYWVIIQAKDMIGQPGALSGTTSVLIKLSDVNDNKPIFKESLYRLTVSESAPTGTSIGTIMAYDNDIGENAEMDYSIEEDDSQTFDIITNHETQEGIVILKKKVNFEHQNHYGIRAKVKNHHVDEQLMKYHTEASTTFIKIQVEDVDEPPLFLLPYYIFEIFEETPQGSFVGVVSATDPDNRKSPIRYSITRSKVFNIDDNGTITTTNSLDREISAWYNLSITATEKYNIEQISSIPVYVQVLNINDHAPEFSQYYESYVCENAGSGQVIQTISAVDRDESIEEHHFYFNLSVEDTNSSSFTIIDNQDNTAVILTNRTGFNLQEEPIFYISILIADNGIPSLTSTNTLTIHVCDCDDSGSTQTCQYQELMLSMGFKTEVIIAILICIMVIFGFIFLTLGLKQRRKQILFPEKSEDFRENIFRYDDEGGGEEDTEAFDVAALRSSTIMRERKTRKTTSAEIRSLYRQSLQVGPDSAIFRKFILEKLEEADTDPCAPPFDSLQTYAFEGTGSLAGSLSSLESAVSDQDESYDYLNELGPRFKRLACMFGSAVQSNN

[2] = target: T2, Human Cadherin-19 (human, UniProt Q9H159 44-772); assay: FACS, endogenous CDH19 on tumor cells and 293/CDH-19 transfectants
T2 construct: Residues 1-43 are named as the native leader in the construct designations and are left out; also called human CDH19; huCDH19
Protocol: (§1) FACS binding assays were performed to evaluate the binding of the anti-Cadherin-19 receptor specific antibodies to endogenous Cadherin-19 receptor expressed on the CHL-1 tumor cell lines.
(§2) FACs assays were performed by incubating hybridoma supernatants with 10,000 to 25,000 cells in PBS/2% Fetal bovine serum/2 mM Calcium Chloride at 4° C. for one hour followed by two washes with PBS/2% Fetal bovine serum/2 mM Calcium Chloride. Cells were then treated with florochrome-labeled secondary antibodies at 4° C. followed by one wash. The cells were resuspended in 50 μl of PBS/2% FBS and antibody binding was analyzed using a FACSCalibur™ instrument.

[3] = target: T3, huCDH19(44-772), Flag-tagged, on 293T cells (human, UniProt Q9H159 44-772); assay: FACS, transfected 293T
T3 construct: Expressed with native leader (1-43) followed by a Flag tag; leader left out; also called Hu EC1-5
Description: (§3) The experiment included assaying the anti-CDH19 antibodies against mouse Cadherin19 to determine suitability for binning on these human/mouse chimeras.

[4] = target: T4, muCDH19(44-139)::huCDH19(142-364)::muCDH19(363-770), Flag-tagged, on 293T cells (human/mouse chimera); assay: FACS, transfected 293T
T4 construct: also called Hu EC2-3; C137847
Description: as §3

[5] = target: T5, muCDH19(44-461)::huCDH19(464-772), Flag-tagged, on 293T cells (human/mouse chimera); assay: FACS, transfected 293T
T5 construct: also called Hu EC5; C137915
T5 chain: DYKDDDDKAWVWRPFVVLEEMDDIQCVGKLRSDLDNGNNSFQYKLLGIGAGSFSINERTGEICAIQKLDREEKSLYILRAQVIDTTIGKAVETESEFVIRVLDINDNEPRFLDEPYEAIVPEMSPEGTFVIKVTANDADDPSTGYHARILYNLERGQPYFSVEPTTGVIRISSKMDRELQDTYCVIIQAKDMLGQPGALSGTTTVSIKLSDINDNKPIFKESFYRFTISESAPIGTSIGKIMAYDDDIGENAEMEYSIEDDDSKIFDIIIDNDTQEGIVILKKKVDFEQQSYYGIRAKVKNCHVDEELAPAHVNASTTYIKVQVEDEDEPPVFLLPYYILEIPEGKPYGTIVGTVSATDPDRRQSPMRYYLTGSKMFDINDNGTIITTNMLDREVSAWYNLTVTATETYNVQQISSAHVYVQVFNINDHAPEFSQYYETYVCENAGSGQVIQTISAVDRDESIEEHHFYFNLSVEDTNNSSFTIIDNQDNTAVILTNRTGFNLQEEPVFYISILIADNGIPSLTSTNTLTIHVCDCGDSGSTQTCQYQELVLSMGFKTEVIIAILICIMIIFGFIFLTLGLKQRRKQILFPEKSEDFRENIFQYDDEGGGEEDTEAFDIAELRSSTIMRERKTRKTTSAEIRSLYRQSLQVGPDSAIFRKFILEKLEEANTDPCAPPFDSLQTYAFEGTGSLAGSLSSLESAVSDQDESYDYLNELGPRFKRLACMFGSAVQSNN
Description: as §3

[6] = target: T6, huCDH19(44-249)::muCDH19(248-770), Flag-tagged, on 293T cells (human/mouse chimera); assay: FACS, transfected 293T
T6 construct: also called Hu EC1-2; C137896
Description: as §3

[7] = target: T7, muCDH19(44-139)::huCDH19(142-249)::muCDH19(248-770), Flag-tagged, on 293T cells (human/mouse chimera); assay: FACS, transfected 293T
T7 construct: also called Hu EC2; C137913
T7 chain: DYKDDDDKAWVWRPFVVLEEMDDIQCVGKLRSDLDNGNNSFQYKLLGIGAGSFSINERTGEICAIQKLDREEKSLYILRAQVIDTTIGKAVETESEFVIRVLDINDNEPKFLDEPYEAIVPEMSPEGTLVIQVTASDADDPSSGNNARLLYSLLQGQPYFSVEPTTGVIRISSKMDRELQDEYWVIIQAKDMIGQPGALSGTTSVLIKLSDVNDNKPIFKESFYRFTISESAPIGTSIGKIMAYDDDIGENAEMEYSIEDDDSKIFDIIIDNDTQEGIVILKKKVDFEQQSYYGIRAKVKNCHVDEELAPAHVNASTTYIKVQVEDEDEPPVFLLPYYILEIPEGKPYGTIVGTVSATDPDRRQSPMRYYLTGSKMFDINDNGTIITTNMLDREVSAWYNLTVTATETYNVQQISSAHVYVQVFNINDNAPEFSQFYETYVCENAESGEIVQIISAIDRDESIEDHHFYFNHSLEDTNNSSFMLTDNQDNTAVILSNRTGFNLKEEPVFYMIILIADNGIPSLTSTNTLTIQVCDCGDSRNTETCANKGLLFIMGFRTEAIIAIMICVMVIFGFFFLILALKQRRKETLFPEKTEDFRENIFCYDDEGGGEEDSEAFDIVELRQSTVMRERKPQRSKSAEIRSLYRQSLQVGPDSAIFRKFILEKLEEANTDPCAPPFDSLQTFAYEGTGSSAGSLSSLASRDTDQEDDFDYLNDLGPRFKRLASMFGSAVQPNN
Description: as §3

[8] = target: T8, muCDH19(44-247)::huCDH19(250-364)::muCDH19(363-770), Flag-tagged, on 293T cells (human/mouse chimera); assay: FACS, transfected 293T
T8 construct: also called Hu EC3; C137911
Description: as §3

[9] = target: T9, muCDH19(44-770), Flag-tagged, on 293T cells (mouse); assay: FACS, transfected 293T
T9 construct: also called Mu EC1-5
T9 chain: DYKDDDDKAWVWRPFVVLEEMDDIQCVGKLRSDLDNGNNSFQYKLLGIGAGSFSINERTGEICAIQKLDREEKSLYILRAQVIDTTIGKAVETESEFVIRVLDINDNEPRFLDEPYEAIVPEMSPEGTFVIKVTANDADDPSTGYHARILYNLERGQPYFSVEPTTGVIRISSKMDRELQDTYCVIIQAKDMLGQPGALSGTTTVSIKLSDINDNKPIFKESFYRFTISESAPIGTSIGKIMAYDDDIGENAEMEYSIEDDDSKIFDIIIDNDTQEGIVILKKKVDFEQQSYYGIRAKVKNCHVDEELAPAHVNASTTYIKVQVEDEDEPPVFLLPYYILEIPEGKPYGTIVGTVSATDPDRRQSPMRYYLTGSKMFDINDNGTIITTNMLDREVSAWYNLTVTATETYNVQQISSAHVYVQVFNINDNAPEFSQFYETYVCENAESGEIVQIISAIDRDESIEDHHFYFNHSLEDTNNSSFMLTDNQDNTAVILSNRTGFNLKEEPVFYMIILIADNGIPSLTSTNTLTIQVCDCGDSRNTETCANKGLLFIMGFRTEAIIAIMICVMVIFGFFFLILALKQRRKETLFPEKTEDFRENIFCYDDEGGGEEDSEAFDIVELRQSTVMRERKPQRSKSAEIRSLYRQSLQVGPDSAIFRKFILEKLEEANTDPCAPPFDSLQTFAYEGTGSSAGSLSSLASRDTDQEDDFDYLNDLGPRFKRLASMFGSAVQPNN
Description: as §3

[10] = target: T10, huCDH19(44-141)::muCDH19(140-770), Flag-tagged, on 293T cells (human/mouse chimera); assay: FACS, transfected 293T
T10 construct: also called Hu EC1
Description: as §3

[11] = target: T11, muCDH19(44-362)::huCDH19(365-772), Flag-tagged, on 293T cells (human/mouse chimera); assay: FACS, transfected 293T
T11 construct: also called Hu EC4-5; C137917
T11 chain: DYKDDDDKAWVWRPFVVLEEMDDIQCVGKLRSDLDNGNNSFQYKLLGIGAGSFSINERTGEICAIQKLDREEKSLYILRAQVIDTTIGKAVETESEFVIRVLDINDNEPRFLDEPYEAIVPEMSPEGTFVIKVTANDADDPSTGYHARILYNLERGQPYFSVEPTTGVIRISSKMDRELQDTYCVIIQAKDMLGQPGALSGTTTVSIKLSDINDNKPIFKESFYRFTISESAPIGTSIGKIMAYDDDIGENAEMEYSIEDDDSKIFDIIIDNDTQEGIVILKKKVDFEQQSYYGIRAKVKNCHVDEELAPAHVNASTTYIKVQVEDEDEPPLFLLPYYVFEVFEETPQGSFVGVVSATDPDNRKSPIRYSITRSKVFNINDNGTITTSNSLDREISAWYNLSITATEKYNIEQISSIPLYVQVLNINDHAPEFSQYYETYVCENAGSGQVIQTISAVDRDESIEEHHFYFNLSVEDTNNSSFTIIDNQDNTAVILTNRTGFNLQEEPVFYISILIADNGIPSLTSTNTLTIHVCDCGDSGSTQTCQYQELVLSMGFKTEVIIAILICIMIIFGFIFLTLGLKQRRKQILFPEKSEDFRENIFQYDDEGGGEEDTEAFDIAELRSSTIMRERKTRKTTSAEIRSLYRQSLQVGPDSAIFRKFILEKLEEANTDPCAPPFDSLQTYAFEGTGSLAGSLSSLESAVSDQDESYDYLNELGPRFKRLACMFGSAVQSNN
Description: as §3

[12] = target: T2, Human Cadherin-19; assay: FACS, endogenous and recombinant human CDH19
Protocol: as §1, §2

Measured: binding result

B1: hu anti-<huCDH19> 22G10.1 VH::huIgG1z / 22G10.1 VL::huKLC (Ab ID 13877) (antibody, V domains shown)
VH: EVQLLESGGGLVQPGGSLRLSCAASGFTFSSYAMNWVRQAPGKGLEWVSTISGGGANTYYADSVKGRFTISSDNSKSTLYLQMNSLRAADTAVYHCAKGGMGGYYYGMDVWGQGTTVTVSS
VL: EIVMTQSPVTLSLSLGERATLSCRASQSISSNLAWFQQKPGQAPRLLIYGAFTRATGIPARVSGSGSGTEFTLTISSLQSEDFAVYYCQQYNYWPLTFGGGTKVEIKR
binds: [1] | [2]

B2: hu anti-<huCDH19> 2G6 (1-477)(R17G,D61E,D72E,K94N) VH::huIgG1z / 2G6 (1-234)(C42S,D110E) VL::huLLC-C1 (Ab ID 14039) (antibody, V domains shown)
VH: QVQLVESGGGVVQPGGSLRLSCAASGFTFSSYGMHWVRQAPGKGLEWVAFIWYEGSNKYYAESVKDRFTISRDNSKNTLYLQMNSLRAEDTAVYYCARRAGIIGTIGYYYGMDVWGQGTTVTVSS
VL: SYELTQPPSVSVSPGQTASITCSGDRLGEKYTSWYQQRPGQSPLLVIYQDTKRPSGIPERFSGSNSGNTATLTISGTQAMDEADYYCQAWESSTVVFGGGTKLTVLG
notes: Engineered variant of 2G6
not listed: [1] | [2] | [12]
binds: all other assays above

B3: anti-CDH19 antibody 23A10 (Ab ID 13884) (antibody, human IgG1, lambda, V domains shown)
VH: QVQLVESGGGVVQPGRSLRLSCAASGFTFSRYGIHWVRQAPGKGLEWVAVIWYDGSNKYYADSVKGRFTISRDNSKNTLYLLMNSLRAEDSAVYYCARRAGIPGTTGYYYGMDVWGQGTTVTVSS
VL: SYELTQPPSVSVSPGQTASITCSGDRLGEKYVCWYQQKPGQSPILVIYQDNKWPSGIPERFSGSNSGNTATLTISGTQAMDEADYYCQAWDSSTVVFGGGTKLTVLG
binds: [1] | [12]

B4: hu anti-<huCDH19> 4A2 (1-472)(Q17E,H47P) VH::huIgG1z / 4A2 (1-236)(N30Q,T102A) VL::huKLC (Ab ID 14026) (antibody, V domains shown)
VH: QVQLQESGPGLVKPSETLSLTCTVSGGSISSSGYYWSWIRQPPGKGLEWIGYIYYTGSAYYNPSLKSRVTISVDTSKNQFSLKLSSVTAADTAVYYCARDGSSGWYFQYWGQGTLVTVSS
VL: EIVLTQSPGTLSLSPGERATLSCRASRQISSSYLAWYQQKPGQAPRLLIYGPSSRATGIPDRFSGSGSGTDFTLTISRLEPEDFAVYYCQQYGSSFTFGPGTKVDIKR
notes: Engineered variant of 4A2
binds: [3] | [4] | [8]
